Experimental data taken from the supplement of paper PMC9732359.
± gives the uncertainty stated by the source.

Assay: protein stability index of a GFP-peptide fusion (yeast GPS) (PSI 1-4); higher = more stable; sorted into four equal gates, so the index is relative within each strain
In short: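 The protein stability index combines read frequencies across sorting gates, each weighted by its gate number and then summed. To obtain those frequencies, a pooled yeast library of GFP fusions to tiled 17-residue yeast protein peptides, on a plasmid also expressing Cherry, was grown to mid-log phase in leucine-free medium. The cells were sorted into four equal gates by GFP/Cherry ratio before plasmid amplification by PCR and Illumina sequencing.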

ITRSFKEPRLVIVTDPR [RPS0A]
protein stability index (doa10∆): 1.56 ± 0.2
protein stability index (pdr5∆): 1.89 ± 0.13
protein stability index (san1∆): 1.98 ± 0.14
protein stability index (ubr1∆): 1.28 ± 0.13

LQYGWKVERHIMDNDPV [RPO21]
protein stability index (doa10∆): 1.19 ± 0.069
protein stability index (pdr5∆): 1.21 ± 0.12
protein stability index (san1∆): 1.37 ± 0.19
protein stability index (ubr1∆): 1.24 ± 0.098

LKGEIEDYPMSSEIKIY [SIR4]
protein stability index (doa10∆): 1.33 ± 0.15
protein stability index (san1∆): 3.25 ± 0.18
protein stability index (ubr1∆): 1.64 ± 0.2

TLISRISSLFTITTILI [YML103C/NUP188]
protein stability index (doa10∆): 1.63 ± 0.068
protein stability index (pdr5∆): 1.8 ± 0.066
protein stability index (san1∆): 1.37 ± 0.088
protein stability index (ubr1∆): 2.02 ± 0.11

ASGCNVTPIIDGIVVKN [ARP7]
protein stability index (doa10∆): 1.9 ± 0.064
protein stability index (pdr5∆): 2.38 ± 0.063
protein stability index (san1∆): 2.25 ± 0.077
protein stability index (ubr1∆): 2.9 ± 0.055

VRAVSITSFGFGQKGGQ [FAS2]
protein stability index (doa10∆): 2.92 ± 0.19
protein stability index (pdr5∆): 2.96 ± 0.23
protein stability index (san1∆): 1.74 ± 0.21
protein stability index (ubr1∆): 3.31 ± 0.27

QDVLKGSSASSRKAHGL [POP1]
protein stability index (doa10∆): 3.27 ± 0.062
protein stability index (pdr5∆): 3.06 ± 0.064
protein stability index (san1∆): 3.1 ± 0.059
protein stability index (ubr1∆): 3.14 ± 0.067

IADLASLEQLLGMMYEQ [YCS4]
protein stability index (doa10∆): 3.18 ± 0.1
protein stability index (pdr5∆): 2.6 ± 0.067
protein stability index (san1∆): 2.6 ± 0.074
protein stability index (ubr1∆): 2.65 ± 0.031

KTKKLNLSAFKIVYIAP [BRR2]
protein stability index (doa10∆): 2.13 ± 0.056
protein stability index (pdr5∆): 2.1 ± 0.052
protein stability index (san1∆): 2.19 ± 0.069
protein stability index (ubr1∆): 2.27 ± 0.052

YKVLKNNGLPECQVIAA [YCG1]
protein stability index (doa10∆): 1.42 ± 0.09
protein stability index (pdr5∆): 2.1 ± 0.14
protein stability index (san1∆): 1.35 ± 0.16
protein stability index (ubr1∆): 1.95 ± 0.062

DYISGISVGLYDTTPLL [SKI6]
protein stability index (doa10∆): 2.42 ± 0.12
protein stability index (pdr5∆): 2.28 ± 0.1
protein stability index (san1∆): 1.84 ± 0.084
protein stability index (ubr1∆): 2.26 ± 0.13

RAHRIGQKNEVRILRLI [SNF2]
protein stability index (doa10∆): 2.26 ± 0.048
protein stability index (pdr5∆): 1.79 ± 0.051
protein stability index (san1∆): 2.03 ± 0.058
protein stability index (ubr1∆): 2.23 ± 0.044

MPDMNEMMKMMQDPQMQ [SRP54]
protein stability index (doa10∆): 3.22 ± 0.19
protein stability index (pdr5∆): 3.45 ± 0.21
protein stability index (san1∆): 3.5 ± 0.083
protein stability index (ubr1∆): 3.33 ± 0.084

EFIPPDPTKVTEFEFYL [SSN8]
protein stability index (doa10∆): 3.04 ± 0.055
protein stability index (pdr5∆): 2.85 ± 0.039
protein stability index (san1∆): 2.88 ± 0.051
protein stability index (ubr1∆): 2.68 ± 0.031

QLKRWYWQFNGVIALGQ [RMP1]
protein stability index (ubr1∆): 1.41 ± 0.22

FTTNKSKDVSRLLSALG [SRP21]
protein stability index (doa10∆): 3.03 ± 0.2
protein stability index (pdr5∆): 2.41 ± 0.28
protein stability index (ubr1∆): 2.8 ± 0.081

MIRLLGSESDDSEGSIK [ECM29]
protein stability index (doa10∆): 2.67 ± 0.21
protein stability index (san1∆): 2.54 ± 0.26
protein stability index (ubr1∆): 3.4 ± 0.25

NAEKYFNNGDDDDYGDE [RPC31]
protein stability index (doa10∆): 3.18 ± 0.099
protein stability index (pdr5∆): 2.67 ± 0.13
protein stability index (san1∆): 3.07 ± 0.066
protein stability index (ubr1∆): 3.16 ± 0.073

DKEWVFAALSDSYGQGS [SSN2]
protein stability index (doa10∆): 3.18 ± 0.11
protein stability index (pdr5∆): 3.46 ± 0.1
protein stability index (san1∆): 3.1 ± 0.13
protein stability index (ubr1∆): 3.34 ± 0.09

YPEYDQITKFPKYRDNL [SSN3]
protein stability index (doa10∆): 2.21 ± 0.18
protein stability index (pdr5∆): 2.4 ± 0.13
protein stability index (san1∆): 2.24 ± 0.12
protein stability index (ubr1∆): 2.25 ± 0.047

VPVTKLGRLVKAGKITT [RPS2]
protein stability index (doa10∆): 3.13 ± 0.091
protein stability index (pdr5∆): 3 ± 0.15
protein stability index (san1∆): 3.03 ± 0.11
protein stability index (ubr1∆): 3.45 ± 0.078

VDIRVGKKSSSSTKDYL [RET1]
protein stability index (doa10∆): 3.42 ± 0.29
protein stability index (pdr5∆): 3.37 ± 0.12
protein stability index (san1∆): 3.56 ± 0.13
protein stability index (ubr1∆): 2.65 ± 0.18

SQVYAIRQAIAKGLVAY [RPS16A]
protein stability index (doa10∆): 2.22 ± 0.069
protein stability index (pdr5∆): 2.35 ± 0.071
protein stability index (san1∆): 2.27 ± 0.1
protein stability index (ubr1∆): 2.42 ± 0.055

LVHSEYLINGKRFKRKD [SRP68]
protein stability index (doa10∆): 2.68 ± 0.16
protein stability index (pdr5∆): 2.79 ± 0.065
protein stability index (san1∆): 2.84 ± 0.076
protein stability index (ubr1∆): 2.67 ± 0.038

GNPGLPQYQYQRRYVIK [ITC1]
protein stability index (doa10∆): 3.27 ± 0.2
protein stability index (pdr5∆): 3.04 ± 0.15
protein stability index (san1∆): 2.87 ± 0.079
protein stability index (ubr1∆): 3.34 ± 0.095

LKVNVTLDNPLLVDKDA [YJL039C/NUP192]
protein stability index (doa10∆): 3.02 ± 0.077
protein stability index (pdr5∆): 2.93 ± 0.065
protein stability index (san1∆): 3 ± 0.041
protein stability index (ubr1∆): 2.7 ± 0.051

LSSLKSFAIYSSTIDAP [SRB8]
protein stability index (doa10∆): 1.71 ± 0.038
protein stability index (pdr5∆): 1.57 ± 0.034
protein stability index (san1∆): 1.83 ± 0.064
protein stability index (ubr1∆): 1.73 ± 0.038

QIPHFNNKILEKCKEIN [BRR2]
protein stability index (doa10∆): 1.28 ± 0.11
protein stability index (pdr5∆): 2.23 ± 0.12
protein stability index (san1∆): 1.88 ± 0.22
protein stability index (ubr1∆): 2.02 ± 0.14

LCMDSSYIGTIIVKDKS [POP1]
protein stability index (doa10∆): 1.2 ± 0.091
protein stability index (pdr5∆): 1.49 ± 0.048
protein stability index (san1∆): 1.13 ± 0.11
protein stability index (ubr1∆): 1.28 ± 0.089

EKVRPTPGEVASKAIVQ [MCD1]
protein stability index (doa10∆): 3.16 ± 0.14
protein stability index (pdr5∆): 2.42 ± 0.084
protein stability index (san1∆): 1.55 ± 0.29
protein stability index (ubr1∆): 2.84 ± 0.25

STSIQYHGISKNDNIKK [POP6]
protein stability index (doa10∆): 2.79 ± 0.068
protein stability index (pdr5∆): 2.9 ± 0.055
protein stability index (san1∆): 2.89 ± 0.043
protein stability index (ubr1∆): 2.92 ± 0.05

KEDAKATMENIQKGKFT [SRP54]
protein stability index (doa10∆): 3.07 ± 0.055
protein stability index (pdr5∆): 3.29 ± 0.057
protein stability index (san1∆): 3.09 ± 0.062
protein stability index (ubr1∆): 3.08 ± 0.051

MKANPALYVLRERIRKG [PRP8]
protein stability index (doa10∆): 2.47 ± 0.23
protein stability index (pdr5∆): 2.87 ± 0.11
protein stability index (san1∆): 2.66 ± 0.12
protein stability index (ubr1∆): 2.41 ± 0.29

MTMASKSLEVVNADTVG [NSL1]
protein stability index (doa10∆): 2.96 ± 0.078
protein stability index (pdr5∆): 2.82 ± 0.075
protein stability index (san1∆): 2.7 ± 0.068
protein stability index (ubr1∆): 2.38 ± 0.053

VGKVMNKNQETAISVAK [RPT6]
protein stability index (pdr5∆): 3.55 ± 0.21
protein stability index (san1∆): 3.23 ± 0.082
protein stability index (ubr1∆): 3.4 ± 0.11

GFALNSDIVFIHQNAGR [BRR2]
protein stability index (doa10∆): 3.03 ± 0.12
protein stability index (pdr5∆): 2.09 ± 0.09
protein stability index (san1∆): 1.78 ± 0.2
protein stability index (ubr1∆): 2.02 ± 0.057

CRGELKADIGKPGRMPF [CDC53]
protein stability index (doa10∆): 2.21 ± 0.071
protein stability index (pdr5∆): 2.65 ± 0.069
protein stability index (san1∆): 2.91 ± 0.085
protein stability index (ubr1∆): 2.97 ± 0.067

DEFPELKEPVEDIIKRT [NUT2]
protein stability index (doa10∆): 3.5 ± 0.066
protein stability index (pdr5∆): 3.36 ± 0.07
protein stability index (san1∆): 3.31 ± 0.045
protein stability index (ubr1∆): 3.36 ± 0.048

DDAMEINGEDPANNHQL [SMX2]
protein stability index (doa10∆): 3.38 ± 0.076
protein stability index (pdr5∆): 3.02 ± 0.086
protein stability index (san1∆): 3.3 ± 0.047
protein stability index (ubr1∆): 3.44 ± 0.071

KLTGDDQKFGVPVRSFK [ASC1]
protein stability index (doa10∆): 2.36 ± 0.16
protein stability index (pdr5∆): 3.16 ± 0.12
protein stability index (san1∆): 2.77 ± 0.1
protein stability index (ubr1∆): 3 ± 0.1

GKSTADVKSSDSLKLNS [YJL041W/NSP1]
protein stability index (doa10∆): 3.23 ± 0.14
protein stability index (pdr5∆): 3.35 ± 0.12
protein stability index (san1∆): 2.96 ± 0.17
protein stability index (ubr1∆): 3.32 ± 0.14

TALKQYEKELMGDELTR [RPN6]
protein stability index (doa10∆): 3.26 ± 0.13
protein stability index (pdr5∆): 3.54 ± 0.15
protein stability index (san1∆): 3.42 ± 0.077
protein stability index (ubr1∆): 3.51 ± 0.12

ESSELNKDSIEECGRTI [CSN12]
protein stability index (doa10∆): 3.46 ± 0.18
protein stability index (pdr5∆): 2.92 ± 0.16
protein stability index (san1∆): 3.42 ± 0.089
protein stability index (ubr1∆): 3.28 ± 0.15

ALGIKVTNPKGRLALEA [RPL32]
protein stability index (pdr5∆): 3.37 ± 0.18
protein stability index (san1∆): 2.87 ± 0.23
protein stability index (ubr1∆): 3.36 ± 0.19

ISKKLQFSYLSSTLGID [PCI8]
protein stability index (doa10∆): 2.08 ± 0.055
protein stability index (pdr5∆): 1.67 ± 0.054
protein stability index (san1∆): 1.49 ± 0.097
protein stability index (ubr1∆): 1.63 ± 0.044

EAPFLTSGTSSEQFNVW [GAL11]
protein stability index (doa10∆): 2.56 ± 0.091
protein stability index (pdr5∆): 3.27 ± 0.072
protein stability index (san1∆): 3.02 ± 0.062
protein stability index (ubr1∆): 3.21 ± 0.13

PRGLRSLTTVWAEHLSD [RPL3]
protein stability index (doa10∆): 2.74 ± 0.12
protein stability index (pdr5∆): 2.83 ± 0.17
protein stability index (ubr1∆): 2.72 ± 0.16

VAQPDSLRETNTTDPLG [SIR2]
protein stability index (doa10∆): 3.09 ± 0.17
protein stability index (pdr5∆): 3.45 ± 0.17
protein stability index (san1∆): 2.41 ± 0.12
protein stability index (ubr1∆): 3.08 ± 0.14

VLIFFQMTQIMDIMEDF [SNF2]
protein stability index (doa10∆): 1.67 ± 0.083
protein stability index (pdr5∆): 1.52 ± 0.085
protein stability index (san1∆): 2.18 ± 0.13
protein stability index (ubr1∆): 2.42 ± 0.091

TGLSQIPNRRFTLWWSP [PRP8]
protein stability index (doa10∆): 3.04 ± 0.058
protein stability index (pdr5∆): 2.78 ± 0.056
protein stability index (san1∆): 1.87 ± 0.048
protein stability index (ubr1∆): 2.52 ± 0.042

FNKTTNIDINNEDENIQ [YJL041W/NSP1]
protein stability index (doa10∆): 3.19 ± 0.074
protein stability index (pdr5∆): 3.31 ± 0.082
protein stability index (san1∆): 3.09 ± 0.056
protein stability index (ubr1∆): 3.2 ± 0.059

TVGSSNGGLIHVVTREK [RPO21]
protein stability index (doa10∆): 2.98 ± 0.15
protein stability index (pdr5∆): 3.19 ± 0.12
protein stability index (san1∆): 2.87 ± 0.13
protein stability index (ubr1∆): 3.09 ± 0.07

VRKYDLNICRQCFREKA [RPS29B]
protein stability index (doa10∆): 2.12 ± 0.22
protein stability index (pdr5∆): 2.67 ± 0.092
protein stability index (san1∆): 2.02 ± 0.19
protein stability index (ubr1∆): 2.49 ± 0.11
